{
  "source": "patent US20030109691A1",
  "about": "(GENERAL HOSPITAL, published 2003)",
  "biological_target": "T1, CD54 (ICAM-1) (UniProt P05362 28-480, limits assumed)",
  "T1 construct": "Amine-coupled to a CM5 chip for SPR",
  "T1 sequence (P05362 28-480 limits assumed)": "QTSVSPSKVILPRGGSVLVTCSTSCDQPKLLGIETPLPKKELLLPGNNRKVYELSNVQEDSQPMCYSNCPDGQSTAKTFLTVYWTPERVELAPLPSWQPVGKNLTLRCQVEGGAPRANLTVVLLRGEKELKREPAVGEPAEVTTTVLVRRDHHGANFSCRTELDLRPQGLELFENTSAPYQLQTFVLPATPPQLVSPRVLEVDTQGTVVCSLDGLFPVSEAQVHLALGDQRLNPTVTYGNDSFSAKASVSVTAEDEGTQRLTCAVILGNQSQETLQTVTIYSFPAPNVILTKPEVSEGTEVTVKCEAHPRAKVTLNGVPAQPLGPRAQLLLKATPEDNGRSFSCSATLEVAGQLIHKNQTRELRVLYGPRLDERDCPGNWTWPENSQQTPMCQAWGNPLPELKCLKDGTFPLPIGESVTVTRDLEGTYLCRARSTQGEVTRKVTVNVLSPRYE",
  "assay": "ELISA, CD11a A domain on ICAM-1",
  "data": [
    {"binder": "wild-type CD11a A domain (receptor, human, UniProt P20701 150-333, looked up, domain: A domain; also called wild-type protein without this substitution) CIKGNVDLVFLFDGSMSLQPDEFQKILDFMKDVMKKLSNTSYQFAAVQFSTSYKTEFDFSDYVKRKDPDALLKHVKHMLLLTNTFGAINYVATEVFREELGARPDATKVLIIITDGEATDSGNIDAAKDIIRYIIGIGKHFQTKESQETLHKFASKPASEFVKILDTFEKLKDLFTELQKKIYV", "values": [
      {"measurement": "binding result", "value": "no binding"}
    ]}
  ]
}
